Target: the molecule itself
Experiment: non-reducing vs reducing SDS PAGE, subunit self-association (disulfide cross-link)
Description: In order to observe the disulfide bonding of lysine decarboxylase mutant strain, the protein sizes when reducing power was applied and not applied to wild type lysine decarboxylase LdcI (SEQ ID NO: 15) and the mutant strain wherein phenylalanine at position 14 is substituted with cysteine, and lysine at position 44 is substituted with cysteine (F14C/K44C, SEQ ID NO: 6) were measured with SDS PAGE. Such a measurement can confirm whether a shared bond is formed between sulfur elements in a form —S—S— wherein two SH groups added to the mutant strain are producing in oxidation. In a reducing SDS PAGE, reducing power is applied to both of the wild type and the mutant strain to break all disulfides where bonding is possible, and then the sizes are observed, and in non-reducing SDS PAGE, it was observed whether disulfide bond is formed.

B1: lysine decarboxylase LdcI mutant strain wherein phenylalanine at position 14 is substituted with cysteine, and lysine at position 44 is substituted with … (enzyme)
chain: MNVIAILNHMGVYCKEEPIRELHRALERLNFQIVYPNDRDDLLCLIENNARLCGVIFDWDKYNLELCEEISKMNENLPLYAFANTYSTLDVSLNDLRLQISFFEYALGAAEDIANKIKQTTDEYINTILPPLTKALFKYVREGKYTFCTPGHMGGTAFQKSPVGSLFYDFFGPNTMKSDISISVSELGSLLDHSGPHKEAEQYIARVFNADRSYMVTNGTSTANKIVGMYSAPAGSTILIDRNCHKSLTHLMMMSDVTPIYFRPTRNAYGILGGIPQSEFQHATIAKRVKETPNATWPVHAVITNSTYDGLLYNTDFIKKTLDVKSIHFDSAWVPYTNFSPIYEGKCGMSGGRVEGKVIYETQSTHKLLAAFSQASMIHVKGDVNEETFNEAYMMHTTTSPHYGIVASTETAAAMMKGNAGKRLINGSIERAIKFRKEIKRLRTESDGWFFDVWQPDHIDTTECWPLRSDSTWHGFKNIDNEHMYLDPIKVTLLTPGMEKDGTMSDFGIPASIVAKYLDEHGIVVEKTGPYNLLFLFSIGIDKTKALSLLRALTDFKRAFDLNLRVKNMLPSLYREDPEFYENMRIQELAQNIHKLIVHHNLPDLMYRAFEVLPTMVMTPYAAFQKELHGMTEEVYLDEMVGRINANMILPYPPGVPLVMPGEMITEESRPVLEFLQMLCEIGAHYPGFETDIHGAYRQADGRYTVKVLKEESKK
modifications: disulfide bond between the introduced cysteines (positions 14 and 44) of neighbouring subunits
notes: Purified enzyme; also called F14C/K44C; F14C/K44C mutant strain
binding result: binds

— US20180291362A1 (SEOUL NATIONAL UNIVERSITY R AND DB FOUNDATION, published 2018)
